Laboratory results published in the supplement of paper PMC7877785.
± gives the uncertainty stated by the source.

Assay: self-splicing fitness, log relative to wild type (ln ratio); higher = more splicing; Tetrahymena group I intron in knt gene, E. coli kanamycin selection, DiMSum; sequences stand for … in CUCUCU…GGAGGGAAAAGUUAUCAGGCAUGCACCUGGUAGCUAGUCUUUAAACCAAUAGAUUGCAUCGGUUUAAAAGGCAAGACCGUCAAAUUGCGGGAAAGGGGUCAACAGCCGUUCAGUACCAAGUCUCAGGGGAAACUUUGAGAUGGCCUUGCAAAGGGUAUGGUAAUAAGCUGACGGACAUGGUCCUAACCACGCAGCCAAGUCCUAAGUCAACAGAUCUUCUGUUGAUAUGGAUGCAGUUCACAGACUAAAUGUCGGUCGGGGAAGAUGUAUUCUUCUCAUAAGAUAUAGUCGGACCUCUCCUUAAUGGGAGCUAGCGGAUGAAGUGAUGCAACACUGGAGCCGCUGGGAACUAAUUUGUAUGCGAAAGUAUAUUGAUUAGUUUUGGAGUACUCGUGGUCG
Method in brief: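 Library with all eight P1ex-region intron nucleotides randomised, intron inside the knt kanamycin-resistance gene on pET-22b(+), in E. coli BL21(DE3). Cells grew overnight at 37°C or 30°C on LB agar with or without 25 μg/mL kanamycin (plus 100 μg/mL carbenicillin, 50 μM IPTG, 0.2% rhamnose), in six replicate transformations. Pooled colonies were amplicon-sequenced on Illumina HiSeq 2500. DiMSum fitness is the error-weighted combination of wild-type-normalised replicate fold changes, kanamycin versus none.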

| Sequence | self-splicing fitness (ln) (30 °C) | self-splicing fitness (ln) (37 °C) |
| --- | --- | --- |
| UUUAAGCAAUAUUACGAUUC | -2.23 ± 0.23 | -0.889 ± 0.19 |
| UUUAAGCAAUAUUACGCAAG | -1.43 ± 0.2 | -0.275 ± 0.18 |
| UUUAAGCAAUAUUACGCAGU | -2.7 ± 0.22 | -2.36 ± 0.27 |
| UUUAAGCAAUAUUACGCGCC | -1.12 ± 0.18 | -1.4 ± 0.26 |
| UUUAAGCAAUAUUACGCUAC | -3.5 ± 0.32 | – |
| UUUAAGCAAUAUUACGGCAC | -2 ± 0.27 | -1.87 ± 0.23 |
| UUUAAGCAAUAUUACGGCCA | -0.688 ± 0.11 | -0.335 ± 0.15 |
| UUUAAGCAAUAUUACGGGCC | – | -2.57 ± 0.49 |
| UUUAAGCAAUAUUACGGUCA | -1.15 ± 0.12 | -0.266 ± 0.1 |
| UUUAAGCAAUAUUACGUAUU | -2.16 ± 0.18 | -0.782 ± 0.21 |
| UUUAAGCAAUAUUACGUCAU | -3.03 ± 0.22 | -1.08 ± 0.15 |
| UUUAAGCAAUAUUACGUGAG | -0.404 ± 0.067 | -0.0655 ± 0.094 |
| UUUAAGCAAUAUUACGUGGC | -3.77 ± 0.23 | -3.57 ± 0.29 |
| UUUAAGCAAUAUUACGUUGG | -1.45 ± 0.1 | -1.67 ± 0.17 |
| UUUCAGCAAUAUUACGAAGU | -1.82 ± 0.22 | 0.335 ± 0.25 |
| UUUCAGCAAUAUUACGACAA | -0.0726 ± 0.12 | -0.913 ± 0.14 |
| UUUCAGCAAUAUUACGACCA | -0.495 ± 0.19 | -1.36 ± 0.23 |
| UUUCAGCAAUAUUACGACGU | -1.71 ± 0.17 | -0.698 ± 0.18 |
| UUUCAGCAAUAUUACGACUA | 0.605 ± 0.12 | 0.612 ± 0.12 |
| UUUCAGCAAUAUUACGAGUA | -1.3 ± 0.11 | -0.691 ± 0.1 |
| UUUCAGCAAUAUUACGAUAU | -1.88 ± 0.15 | -0.0425 ± 0.12 |
| UUUCAGCAAUAUUACGCAAG | -1.27 ± 0.11 | -0.106 ± 0.13 |
| UUUCAGCAAUAUUACGCCGU | -3.39 ± 0.36 | -1.45 ± 0.26 |
| UUUCAGCAAUAUUACGCGAG | -1.16 ± 0.14 | 0.301 ± 0.15 |

| Sequence | self-splicing fitness (ln) (30 °C) | self-splicing fitness (ln) (37 °C) |
| --- | --- | --- |
| UUUCAGCAAUAUUACGGAGU | -2.8 ± 0.28 | -1.64 ± 0.38 |
| UUUCAGCAAUAUUACGGCAU | -1.87 ± 0.16 | -1.08 ± 0.19 |
| UUUCAGCAAUAUUACGGGAC | -2.81 ± 0.21 | -1.4 ± 0.19 |
| UUUCAGCAAUAUUACGGGGG | -2.22 ± 0.15 | -1.45 ± 0.16 |
| UUUCAGCAAUAUUACGGGUG | -0.316 ± 0.074 | -0.441 ± 0.087 |
| UUUCAGCAAUAUUACGGUCG | -0.269 ± 0.074 | 0.418 ± 0.11 |
| UUUCAGCAAUAUUACGGUGC | -3.27 ± 0.21 | -3.4 ± 0.39 |
| UUUCAGCAAUAUUACGGUUA | 0.116 ± 0.071 | 0.454 ± 0.077 |
| UUUCAGCAAUAUUACGUAGU | -3.95 ± 0.24 | -2.63 ± 0.18 |
| UUUCAGCAAUAUUACGUAUA | -0.408 ± 0.21 | -0.0411 ± 0.25 |
| UUUCAGCAAUAUUACGUCCA | -0.967 ± 0.14 | 0.0389 ± 0.16 |
| UUUCAGCAAUAUUACGUCGU | -3.77 ± 0.17 | -1.93 ± 0.11 |
| UUUCAGCAAUAUUACGUCUG | -3.65 ± 0.22 | -1.87 ± 0.16 |
| UUUCAGCAAUAUUACGUUAA | -1.45 ± 0.077 | -1.09 ± 0.076 |
| UUUGAGCAAUAUUACGAAAU | -3.72 ± 0.2 | -2.09 ± 0.17 |
| UUUGAGCAAUAUUACGAAGC | -3.58 ± 0.42 | -1.64 ± 0.33 |
| UUUGAGCAAUAUUACGAAUG | -3.15 ± 0.25 | -0.965 ± 0.29 |
| UUUGAGCAAUAUUACGACUG | -2.39 ± 0.36 | -1.03 ± 0.39 |
| UUUGAGCAAUAUUACGAGGG | -3.32 ± 0.32 | -0.691 ± 0.24 |
| UUUGAGCAAUAUUACGCAAU | -3.33 ± 0.48 | -1.5 ± 0.46 |
| UUUGAGCAAUAUUACGCGAG | -1.42 ± 0.15 | -0.997 ± 0.2 |
| UUUGAGCAAUAUUACGCGGG | -2.66 ± 0.24 | -1.45 ± 0.21 |
| UUUGAGCAAUAUUACGCUAU | -3.79 ± 0.42 | -2.26 ± 0.23 |
